{
  "source": "patent US20200017592A1",
  "key": {"[1]": {"target": "full-length human IL-36R on cells (human) (UniProt Q9HB29)"}, "[2]": {"target": "full-length human IL-36R on cells (human) (UniProt Q9HB29)", "remark": "listed apart in the source"}, "[3]": {"target": "Macaca fascicularis IL-36R on cells (Macaca fascicularis)", "sequence (chain, as listed by the source)": "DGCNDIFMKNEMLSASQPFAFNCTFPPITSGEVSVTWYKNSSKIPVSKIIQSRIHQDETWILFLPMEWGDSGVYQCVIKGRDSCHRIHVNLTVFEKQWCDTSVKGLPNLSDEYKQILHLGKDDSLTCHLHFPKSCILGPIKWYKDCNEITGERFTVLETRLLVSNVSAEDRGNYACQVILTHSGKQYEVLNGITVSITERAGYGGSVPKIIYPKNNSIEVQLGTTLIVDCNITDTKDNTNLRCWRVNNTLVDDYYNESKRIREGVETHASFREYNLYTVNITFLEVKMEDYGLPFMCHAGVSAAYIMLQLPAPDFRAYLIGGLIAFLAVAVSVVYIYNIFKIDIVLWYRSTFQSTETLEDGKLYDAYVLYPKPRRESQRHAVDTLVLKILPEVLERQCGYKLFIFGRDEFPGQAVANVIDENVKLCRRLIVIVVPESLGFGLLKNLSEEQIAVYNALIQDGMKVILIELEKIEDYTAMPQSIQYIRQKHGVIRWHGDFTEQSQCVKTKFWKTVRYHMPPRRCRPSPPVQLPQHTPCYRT", "test": "cell-based or functional assay"}, "[4]": {"target": "full-length human IL-36R on cells (human) (UniProt Q9HB29)", "test": "cell-based or functional assay"}, "[5]": {"target": "full-length human IL-36R on cells (human) (UniProt Q9HB29)", "remark": "listed apart in the source"}, "[6]": {"target": "full-length human IL-36R on cells (human) (UniProt Q9HB29)", "remark": "listed apart in the source"}, "[7]": {"target": "T1, human IL-36R (IL1RL2) on primary human cells (human) (UniProt Q9HB29)", "T1 sequence (looked up)": "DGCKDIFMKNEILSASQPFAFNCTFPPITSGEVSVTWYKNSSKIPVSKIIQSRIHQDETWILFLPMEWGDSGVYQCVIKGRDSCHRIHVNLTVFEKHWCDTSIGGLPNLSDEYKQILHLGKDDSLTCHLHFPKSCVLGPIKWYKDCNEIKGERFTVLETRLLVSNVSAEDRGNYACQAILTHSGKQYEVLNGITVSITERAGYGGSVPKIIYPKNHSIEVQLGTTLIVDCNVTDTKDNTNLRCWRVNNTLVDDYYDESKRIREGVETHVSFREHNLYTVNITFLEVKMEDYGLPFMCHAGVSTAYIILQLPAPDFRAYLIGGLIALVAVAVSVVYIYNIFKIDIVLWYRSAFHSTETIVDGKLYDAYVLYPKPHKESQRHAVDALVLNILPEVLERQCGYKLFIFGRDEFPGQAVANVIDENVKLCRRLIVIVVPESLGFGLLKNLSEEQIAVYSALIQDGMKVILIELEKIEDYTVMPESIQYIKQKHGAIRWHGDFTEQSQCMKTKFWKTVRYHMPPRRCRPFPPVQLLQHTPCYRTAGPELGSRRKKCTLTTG", "test": "cell-based or functional assay"}},
  "note": "Like-named read-outs stand apart in the source and are kept apart here.",
  "data": [
    {"substance": "human IL-36α (from UniProt Q9UHA7 6-158) (ligand)", "values": [
      {"measurement": "EC50 (read off the curve) of hIL36α, NFκB-luciferase RLU, in the presence of 0.1 nM REGN6489", "setting": "[1]", "value": 0.04, "unit": "nM"},
      {"measurement": "EC50 (read off the curve) of hIL36α, NFκB-luciferase RLU, in the presence of 0.3 nM REGN6489", "setting": "[1]", "value": 0.2, "unit": "nM"},
      {"measurement": "EC50 (read off the curve) of hIL36α, NFκB-luciferase RLU, in the presence of 1 nM REGN6489", "setting": "[1]", "value": 0.6, "unit": "nM"},
      {"measurement": "EC50 (read off the curve) of hIL36α, NFκB-luciferase RLU, in the presence of 3 nM REGN6489", "setting": "[1]", "value": 2, "unit": "nM"},
      {"measurement": "EC50 (read off the curve) of hIL36α, NFκB-luciferase RLU, in the presence of 9 nM REGN6489", "setting": "[1]", "value": 5, "unit": "nM"},
      {"measurement": "EC50 (read off the curve) of hIL36α, NFκB-luciferase RLU, no antibody", "setting": "[1]", "value": 0.02, "unit": "nM"},
      {"measurement": "EC50 (read off the curve) of hIL36α, NFκB-luciferase RLU, in the presence of 0.3 nM REGN6490", "setting": "[2]", "value": 0.05, "unit": "nM"},
      {"measurement": "EC50 (read off the curve) of hIL36α, NFκB-luciferase RLU, in the presence of 1 nM REGN6490", "setting": "[2]", "value": 0.2, "unit": "nM"},
      {"measurement": "EC50 (read off the curve) of hIL36α, NFκB-luciferase RLU, in the presence of 3 nM REGN6490", "setting": "[2]", "value": 0.7, "unit": "nM"},
      {"measurement": "EC50 (read off the curve) of hIL36α, NFκB-luciferase RLU, in the presence of 9 nM REGN6490", "setting": "[2]", "value": 2, "unit": "nM"},
      {"measurement": "EC50, NFκB-luciferase, HEK293/NFκB-luc/MfIL-36R cells", "setting": "[3]", "value": 0.17, "unit": "nM"},
      {"measurement": "EC50, NFκB-luciferase, HEK293/NFκB-luc/hIL-36R cells", "setting": "[4]", "value": 0.012, "unit": "nM"}
    ]},
    {"substance": "human IL-36γ (from UniProt Q9NZH8 18-169) (ligand)", "values": [
      {"measurement": "EC50 (read off the curve) of hIL36γ, NFκB-luciferase RLU, in the presence of 0.1 nM REGN6489", "setting": "[5]", "value": 0.002, "unit": "nM"},
      {"measurement": "EC50 (read off the curve) of hIL36γ, NFκB-luciferase RLU, in the presence of 0.3 nM REGN6489", "setting": "[5]", "value": 0.008, "unit": "nM"},
      {"measurement": "EC50 (read off the curve) of hIL36γ, NFκB-luciferase RLU, in the presence of 1 nM REGN6489", "setting": "[5]", "value": 0.03, "unit": "nM"},
      {"measurement": "EC50 (read off the curve) of hIL36γ, NFκB-luciferase RLU, in the presence of 3 nM REGN6489", "setting": "[5]", "value": 0.1, "unit": "nM"},
      {"measurement": "EC50 (read off the curve) of hIL36γ, NFκB-luciferase RLU, in the presence of 9 nM REGN6489", "setting": "[5]", "value": 0.3, "unit": "nM"},
      {"measurement": "EC50 (read off the curve) of hIL36γ, NFκB-luciferase RLU, no antibody", "setting": "[5]", "value": 0.001, "unit": "nM"},
      {"measurement": "EC50 (read off the curve) of hIL36γ, NFκB-luciferase RLU, in the presence of 0.3 nM REGN6490", "setting": "[6]", "value": 0.004, "unit": "nM"},
      {"measurement": "EC50 (read off the curve) of hIL36γ, NFκB-luciferase RLU, in the presence of 1 nM REGN6490", "setting": "[6]", "value": 0.02, "unit": "nM"},
      {"measurement": "EC50 (read off the curve) of hIL36γ, NFκB-luciferase RLU, in the presence of 3 nM REGN6490", "setting": "[6]", "value": 0.06, "unit": "nM"},
      {"measurement": "EC50 (read off the curve) of hIL36γ, NFκB-luciferase RLU, in the presence of 9 nM REGN6490", "setting": "[6]", "value": 0.2, "unit": "nM"},
      {"measurement": "EC50 (read off the curve) of hIL36γ, NFκB-luciferase RLU, no antibody", "setting": "[6]", "value": 0.003, "unit": "nM"},
      {"measurement": "EC50, NFκB-luciferase, HEK293/NFκB-luc/MfIL-36R cells", "setting": "[3]", "value": 0.062, "unit": "nM"},
      {"measurement": "EC50, NFκB-luciferase, HEK293/NFκB-luc/hIL-36R cells", "setting": "[4]", "value": 0.0084, "unit": "nM"}
    ]},
    {"substance": "rhIL-36α/IL-1F6 [aa6-158] (from UniProt Q9UHA7 6-158) (ligand)", "values": [
      {"measurement": "EC50[M], IL-8 production, Intestinal MyoFibroblasts (InMyoFib), hIL-36α", "setting": "[7]", "value": "1.41e-09", "unit": "M"},
      {"measurement": "EC50[M], IL-8 production, Normal Epidermal Keratinocytes (NHEK), hIL-36α", "setting": "[7]", "value": "1.43e-09", "unit": "M"},
      {"measurement": "EC50[M], IL-8 production, PB-derived CD14+ Monocytes, hIL-36α", "setting": "[7]", "value": "2.75e-09", "unit": "M"}
    ]},
    {"substance": "rhIL-36γ/IL-1F9 [aa18-169] (from UniProt Q9NZH8 18-169) (ligand)", "values": [
      {"measurement": "EC50[M], IL-8 production, Intestinal MyoFibroblasts (InMyoFib), hIL-36γ", "setting": "[7]", "value": "1.46e-09", "unit": "M"},
      {"measurement": "EC50[M], IL-8 production, Normal Epidermal Keratinocytes (NHEK), hIL-36γ", "setting": "[7]", "value": "4e-09", "unit": "M"},
      {"measurement": "EC50[M], IL-8 production, PB-derived CD14+ Monocytes, hIL-36γ", "setting": "[7]", "value": "2.75e-09", "unit": "M"}
    ]}
  ]
}
